This note sets out measurements from publication PMC3891853.

One experiment addresses Hsc70/Hsp70. Briefly: co-immunoprecipitation with anti-Flag agarose, densitometry of co-precipitated Hsc/Hsp70. Particulars: HEK293 cells, transient transfection; mean + SEM, N = 3; parent: 100; read off a plot.
The target in experiment [1] is HA-tagged glucocorticoid receptor (GR) (UniProt P04150). Kind of experiment: co-immunoprecipitation with anti-Flag agarose, Western blot densitometry. Particulars: HEK293 cells, transient transfection, mean + SEM, N = 3, parent: 100, read off a plot.
In experiment [2] the target is Hsc70, in vitro translated and labeled (UniProt P11142).
Sequence of UniProt P11142 (P11142 whole entry): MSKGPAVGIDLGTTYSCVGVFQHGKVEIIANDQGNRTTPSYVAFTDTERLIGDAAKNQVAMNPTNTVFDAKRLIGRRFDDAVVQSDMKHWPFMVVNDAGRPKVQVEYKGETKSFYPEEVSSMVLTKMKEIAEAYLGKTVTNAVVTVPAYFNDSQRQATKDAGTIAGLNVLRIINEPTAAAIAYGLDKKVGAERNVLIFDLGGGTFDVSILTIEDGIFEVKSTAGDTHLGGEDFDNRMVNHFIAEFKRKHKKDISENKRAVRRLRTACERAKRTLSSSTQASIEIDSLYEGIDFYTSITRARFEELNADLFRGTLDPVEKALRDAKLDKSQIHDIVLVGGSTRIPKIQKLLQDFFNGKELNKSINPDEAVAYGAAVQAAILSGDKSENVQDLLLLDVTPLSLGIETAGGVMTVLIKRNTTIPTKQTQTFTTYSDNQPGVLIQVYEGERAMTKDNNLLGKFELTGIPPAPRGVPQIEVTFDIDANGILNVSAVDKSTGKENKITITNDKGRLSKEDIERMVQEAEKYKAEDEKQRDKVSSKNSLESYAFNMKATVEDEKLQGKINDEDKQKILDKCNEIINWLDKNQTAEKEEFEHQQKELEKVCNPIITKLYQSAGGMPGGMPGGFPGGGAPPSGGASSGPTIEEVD

Sequence of UniProt P04150 (P04150 whole entry): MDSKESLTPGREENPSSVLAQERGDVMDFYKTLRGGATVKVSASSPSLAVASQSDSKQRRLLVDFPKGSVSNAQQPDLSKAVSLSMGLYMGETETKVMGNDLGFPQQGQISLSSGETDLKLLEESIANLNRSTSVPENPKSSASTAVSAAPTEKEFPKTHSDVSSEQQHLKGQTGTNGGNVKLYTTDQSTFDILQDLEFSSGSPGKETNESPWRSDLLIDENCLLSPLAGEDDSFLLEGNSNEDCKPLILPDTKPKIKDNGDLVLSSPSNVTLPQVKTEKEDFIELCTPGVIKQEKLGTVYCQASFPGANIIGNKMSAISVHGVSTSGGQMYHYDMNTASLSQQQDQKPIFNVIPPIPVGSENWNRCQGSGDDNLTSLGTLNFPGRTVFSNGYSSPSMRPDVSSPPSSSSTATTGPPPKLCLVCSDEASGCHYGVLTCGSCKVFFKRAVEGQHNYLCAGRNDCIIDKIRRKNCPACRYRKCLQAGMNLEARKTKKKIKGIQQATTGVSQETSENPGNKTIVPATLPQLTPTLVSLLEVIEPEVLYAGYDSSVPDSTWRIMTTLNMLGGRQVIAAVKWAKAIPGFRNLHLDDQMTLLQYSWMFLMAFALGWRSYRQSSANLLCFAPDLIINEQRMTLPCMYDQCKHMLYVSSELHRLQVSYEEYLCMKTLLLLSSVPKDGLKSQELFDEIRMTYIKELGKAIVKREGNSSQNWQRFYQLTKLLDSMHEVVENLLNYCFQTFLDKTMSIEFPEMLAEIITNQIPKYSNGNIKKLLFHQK

For the molecule “Flag-tagged wild-type Bcl2-associated athanogene 1, medium isoform (BAG-1M) R237A”, the results for the percent of parent (% (BAG-1M = 100%)) (with Hsc70/Hsp70; in experiment [1]) were 6 and 18, respectively.

B1: purified HspBP1_mut (A137R, K249A; His-tagged) (natural protein)
chain: MSDEGSRGSRLPLALPPASQGCSSGGGGGGSSAGGSGNSRPPRNLQGLLQMAITAGSEEPDPPPEPMSEERRQWLQEAMSAAFRGQREEVEQMKSCLRVLSQPMPPTAGEAEQAADQQEREGALELLADLCENMDNRADFCQLSGMHLLVGRYLEAGAAGLRWRAAQLIGTCSQNVAAIQEQVLGLGALRKLLRLLDRDACDTVRVKALFAISCLVREQEAGLLQFLRLDGFSVLMRAMQQQVQKLKVASAFLLQNLLVGHPEHKGTLCSMGMVQQLVALVRTEHSPFHEHVLGALCSLVTDFPQGVRECREPELGLEELLRHRCQLLQQHEEYQEELEFCEKLLQTCFSSPADDSMDR
The molecule B1 gave an ATPase activity of purified Hsc70 with DJA2 and HspBP1 mut (each 4 µM, 30°C) in experiment [2] of 7.26 min⁻¹.
